In patent US10464978B2, “Peptides and combination of peptides for use in immunotherapy against ovarian cancer and other cancers” (immatics biotechnologies GmbH, priority 2015, dated 2019):

molecular target: HLA-A*02:01 (Homo sapiens, UniProt P04439, D140Y/D185E/D98H/E176V/E277Q/G131W/G231S/I119V/I121R/I166T/I218V/L300P/L318F/N151K/N90K/P208A/P217A/Q86G/Q94H/R138H/R169H/T345S); assay: MHC binding assay: UV-ligand exchange with beta2m ELISA (peptide exchange yield); settings: binding to HLA-A*02:01
How it was run: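 Peptide-MHC complexes formed by UV-ligand exchange, a UV-cleavable peptide being replaced by the candidate peptide. Exchange products diluted 100-fold, captured on streptavidin-coated plates for 1h at 37° C, then detected with 2 ug/ml HRP anti-β2m (1h, 37° C) and TMB, absorbance 450 nm; value is exchange yield.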

| Peptide exchange (MHC class I binding score, peptide exchange yield) | Substance |
| --- | --- |
| “+++” (≥50 = +++) | 181 (LLWAGTAFQV; listed as Homo sapiens) [compound 181] |
| “+++” (≥50 = +++) | 182 (MLLEAPGIFL; listed as Homo sapiens) [compound 182] |
| “+++” (≥50 = +++) | 183 (FGLDLVTEL; listed as Homo sapiens) [compound 183] |
| “+++” (≥50 = +++) | 184 (YLMDINGKMWL; listed as Homo sapiens) [compound 184] |
| “++” (≥20% = ++) | 185 (FLIDDKGYTL; listed as Homo sapiens) [compound 185] |
| “+++” (≥50 = +++) | 187 (RQISIRGIVGV; listed as Homo sapiens) [compound 187] |
| “+++” (≥50 = +++) | 189 (ALQRKLPYV; listed as Homo sapiens) [compound 189] |
| “++” (≥20% = ++) | 191 (LLQEGQALEYV; listed as Homo sapiens) [compound 191] |
| “+++” (≥50 = +++) | 193 (QLLDADGFLNV; listed as Homo sapiens) [compound 193] |
| “+++” (≥50 = +++) | 194 (ALPLFVITV; listed as Homo sapiens) [compound 194] |
| “+++” (≥50 = +++) | 195 (GLFADLLPRL; listed as Homo sapiens) [compound 195] |
| “++++” (≥75% = ++++) | 196 (YLYSVEIKL; listed as Homo sapiens) [compound 196] |
| “+++” (≥50 = +++) | 198 (KTINKVPTV; listed as Homo sapiens) [compound 198] |
| “+++” (≥50 = +++) | 199 (ALQDVPLSSV; listed as Homo sapiens) [compound 199] |
| “+++” (≥50 = +++) | 201 (RLVDYLEGI; listed as Homo sapiens) [compound 201] |
| “+++” (≥50 = +++) | 202 (ALLDQQGSRWTL; listed as Homo sapiens) [compound 202] |
| “++” (≥20% = ++) | 204 (KIAENVEEV; listed as Homo sapiens) [compound 204] |
| “+++” (≥50 = +++) | 205 (SLYPGTETMGL; listed as Homo sapiens) [compound 205] |
| “++” (≥20% = ++) | 207 (GLTSTNAEV; listed as Homo sapiens) [compound 207] |

| Peptide exchange (MHC class I binding score, peptide exchange yield) | Substance |
| --- | --- |
| “+++” (≥50 = +++) | 208 (KISPVTFSV; listed as Homo sapiens) [compound 208] |
| “++” (≥20% = ++) | 211 (LLWPGAALL; listed as Homo sapiens) [compound 211] |
| “+++” (≥50 = +++) | 214 (FLLDLDPLLL; listed as Homo sapiens) [compound 214] |
| “+++” (≥50 = +++) | 216 (NLWEDPYYL; listed as Homo sapiens) [compound 216] |
| “++” (≥20% = ++) | 218 (SALEELVNV; listed as Homo sapiens) [compound 218] |
| “++” (≥20% = ++) | 220 (LLQKFVPEI; listed as Homo sapiens) [compound 220] |
| “++” (≥20% = ++) | 221 (ALYEEGLLL; listed as Homo sapiens) [compound 221] |
| “+++” (≥50 = +++) | 223 (ALLENIALYL; listed as Homo sapiens) [compound 223] |
| “++” (≥20% = ++) | 227 (ALMNTLLYL; listed as Homo sapiens) [compound 227] |
| “++” (≥20% = ++) | 228 (AMQEYIAVV; listed as Homo sapiens) [compound 228] |
| “+” (≥10% = +) | 230 (ILVDWLVEV; listed as Homo sapiens) [compound 230] |
| “++” (≥20% = ++) | 232 (ALLEAQDVELYL; listed as Homo sapiens) [compound 232] |
| “++” (≥20% = ++) | 233 (VLSETLYEL; listed as Homo sapiens) [compound 233] |
| “++++” (≥75% = ++++) | 235 (YLNDLHEVLL; listed as Homo sapiens) [compound 235] |
| “+++” (≥50 = +++) | 239 (AAFAGKLLSV; listed as Homo sapiens) [compound 239] |
| “+++” (≥50 = +++) | 245 (SMIDDLLGV; listed as Homo sapiens) [compound 245] |
| “+++” (≥50 = +++) | 248 (FLFPNQYVDV; listed as Homo sapiens) [compound 248] |
| “+++” (≥50 = +++) | 249 (LLDGFLVNV; listed as Homo sapiens) [compound 249] |

The next lines start with the substance.

| Substance | Peptide exchange (MHC class I binding score, peptide exchange yield) |
| --- | --- |
| 186 (TLFFQQNAL; listed as Homo sapiens) [compound 186] | “++” (≥20% = ++) |
| 188 (GLFPVTPEAV; listed as Homo sapiens) [compound 188] | “+++” (≥50 = +++) |
| 190 (FLSSLTETI; listed as Homo sapiens) [compound 190] | “+++” (≥50 = +++) |
| 192 (KMLDGASFTL; listed as Homo sapiens) [compound 192] | “+++” (≥50 = +++) |
| 197 (ALGPEGGRV; listed as Homo sapiens) [compound 197] | “++” (≥20% = ++) |
| 200 (LLFGSVQEV; listed as Homo sapiens) [compound 200] | “+++” (≥50 = +++) |
| 206 (VLQEGKLQKLAQL; listed as Homo sapiens) [compound 206] | “+++” (≥50 = +++) |
| 209 (KLIESKHEV; listed as Homo sapiens) [compound 209] | “++” (≥20% = ++) |
| 210 (LLLNAVLTV; listed as Homo sapiens) [compound 210] | “++” (≥20% = ++) |
| 212 (ALWDQDNLSV; listed as Homo sapiens) [compound 212] | “++” (≥20% = ++) |
| 215 (QLINHLHAV; listed as Homo sapiens) [compound 215] | “+++” (≥50 = +++) |
| 217 (ALIHPVSTV; listed as Homo sapiens) [compound 217] | “++” (≥20% = ++) |
| 219 (KLSDIGITV; listed as Homo sapiens) [compound 219] | “+++” (≥50 = +++) |
| 222 (NLIENVQRL; listed as Homo sapiens) [compound 222] | “++” (≥20% = ++) |
| 224 (TLIDAQWVL; listed as Homo sapiens) [compound 224] | “+++” (≥50 = +++) |
| 225 (SLLKVLPAL; listed as Homo sapiens) [compound 225] | “+++” (≥50 = +++) |
| 226 (MLYVVPIYL; listed as Homo sapiens) [compound 226] | “++” (≥20% = ++) |
| 229 (RLPGPLGTV; listed as Homo sapiens) [compound 229] | “++” (≥20% = ++) |
| 231 (FLSPQQPPLLL; listed as Homo sapiens) [compound 231] | “++” (≥20% = ++) |
| 234 (ALMEDTGRQML; listed as Homo sapiens) [compound 234] | “++” (≥20% = ++) |
| 236 (GLLEAKVSL; listed as Homo sapiens) [compound 236] | “+++” (≥50 = +++) |
| 237 (ALLEASGTLLL; listed as Homo sapiens) [compound 237] | “++++” (≥75% = ++++) |
| 238 (YLISFQTHI; listed as Homo sapiens) [compound 238] | “+++” (≥50 = +++) |
| 240 (ILLEQAFYL; listed as Homo sapiens) [compound 240] | “+++” (≥50 = +++) |
| 241 (SLVEVNPAYSV; listed as Homo sapiens) [compound 241] | “+++” (≥50 = +++) |
| 242 (AIAYILQGV; listed as Homo sapiens) [compound 242] | “++” (≥20% = ++) |
| 243 (LLLNELPSV; listed as Homo sapiens) [compound 243] | “+++” (≥50 = +++) |
| 244 (SLFGGTEITI; listed as Homo sapiens) [compound 244] | “+++” (≥50 = +++) |
| 246 (LLWEVVSQL; listed as Homo sapiens) [compound 246] | “+++” (≥50 = +++) |
| 247 (VLLPNDLLEKV; listed as Homo sapiens) [compound 247] | “+++” (≥50 = +++) |
